The results in this text go back to patent publication US8287851B2, “Use of interleukin 17E for the treatment of cancer” (Lorus Therapeutics Inc., priority 2005, dated 2012).

Assay [1] has as its system human melanoma C8161 xenograft. In words: Antitumour activity in murine xenograft model of human melanoma C8161. It counts as in vivo, CD-1 athymic nude mice. Here is the method: Human melanoma cell line C8161 was grown in RPMI 1640 medium (Wisent Inc., St. Bruno, QC) with 10% fetal bovine serum, penicillin (100 U/ml), streptomycin ([…]) (Wisent Inc.) at 37° C. under 95% air and 5% CO2, and maintained with routine media changes. Adherent C8161 cells were passaged by trypsinization with 0.025% trypsin. CD-1 athymic nude mice and C57BL/6 (6-8 weeks old, 20-25 g, female) were purchased from Charles River (Montreal, QC).
Human tumour xenografts were established in mice. Briefly, human tumour cells were harvested at approximately 80% confluence in cell culture medium and resuspended in sterile PBS. Ten million tumour cells in 100 μl were subcutaneously implanted into the right flank of CD-1 athymic nude mice. When tumours reached a volume of 50-100 mm^3, mice were randomly separated into two groups of 10 animals and treated with BD-BRM until the endpoint of the experiment. Anti-tumour activity was evaluated and tumour volume was estimated by caliper measurements, using the formula: Length×Width×Height×/2. Tumour weight was determined from tumour tissue surgically excised from the animal on the last day of the experiment. The percentage of inhibition (%)=(mean tumour weight of control animals−mean tumour weight of drug-treated group)/mean tumour weight of controls×100. A p value of ≦0.05 was considered to be statistically significant.
Mice bearing human melanoma C8161 xenograft were treated intraperitoneally with BD-BRM or PBS for 4 weeks. Briefly, human melanoma C8161 cells were subcutaneously injected into the right flank of CD-1 nude mice as described above. The mice were then administered i.p. with 0.2 ml of PBS or BD-BRM daily when tumours reached a volume of 50-100 mm^3.
Recombinant human IL-17E was obtained from PeproTech, Inc., and is present in the preparation as a 33.8 kDA disulphide linked homodimer of two 145 amino acid polypeptide chains. The predominant form of IL-17E in this preparation is the form starting at Tyr 33 of the human sequence provided by GenBank Accession No. AAG40848. Human melanoma C8161 cells (10^6 cells in 100 μl PBS) were subcutaneously implanted into the right flank of CD-1 athymic nude mice. When tumours reached a volume of 50-100 mm^3, mice were randomly separated into two groups of 10 animals and treated as follows:
Group I: 100 μl of PBS intraperitoneally (i.p.) per mouse every other day until the endpoint of the experiment; and
Group II: 0.04 mg/kg of recombinant human IL-17E intraperitoneally (i.p.) every other day until the endpoint of the experiment.
The size of the tumours was measured by caliper measurements throughout the experiment. Tumour volume was determined using the formula (Length×Width×Height/2). T-tests were performed to assess the statistical significance of differences in tumour sizes. A p value of ≦0.05 was considered to be statistically significant.
The effect of human IL-17E dosage on antitumour efficacy was examined using a murine xenograft model of human melanoma tumour growth. Human melanoma C8161 cells (10^6 cells in 100 μl PBS) were subcutaneously implanted into the right flank of CD-1 athymic nude mice. When tumours reached a volume of 50-100 mm^3, mice were randomly separated into four groups of 10 animals and treated as follows:
Group I: 100 μl of PBS subcutaneously (s.c.) per mouse every other day until the endpoint of the experiment; […]

In assay [2] the test system is eosinophils (CCR3+) in spleen. In words: Eosinophils (CCR3+) in spleen of C8161 tumour xenografted mice. It counts as in vivo, CD-1 nude mice. To be noted: C8161-engrafted mice, Example 21. Here is the method:
Briefly, single cell suspensions of spleen cells were obtained by meshing and passing through a cell strainer (70 um; Bectin Dickinson) to separate fibrous tissue. Erythrocytes were lysed with ACK (0.155 M ammonium chloride, 0.1 mM disodium EDTA, 0.01 M potassium bicarbonate, pH 7.3) for 5 minutes on ice. The single cell suspensions of spleen cells were then analyzed by flow cytometry for the presence of eosinophils by surface staining with an antibody to CCR3 using the method as described in Example 13.
The effect of interleukin 17E on increased percentage of splenic eosinophils and B cells and the proportion of activated splenic B cells was examined. CD1-nude mice engrafted with C8161 human melanoma cells were treated with either PBS, murine IL-17E, or human IL-17E as described previously. At the endpoint of the experiment, spleens were isolated from treated mice, stained with markers specific for eosinophils (CCR3+), B cells (either IgM+ or CD19+), and B cell activation (CD-80+, CD86+), and examined by flow cytometry. […]
The percentage of eosinophils was determined by surface staining the granulocyte-gated population with phycoerythrin (PE)-conjugated anti-mouse CCR3. […] The proportion of activated splenic B cells was determined by staining with FITC-conjugated anti-mouse IgM together with PE-conjugated anti-mouse CD80 and PE-conjugated anti-mouse CD86. […]

The subject of assay [3] is protein tyrosine kinase Lyn. In words: Lyn phosphorylation in B cell lymphoma cell line WEHI-231 (Western blot). The class given is cell-based. Conditions: 0.21 μg per 1.5×10^6 WEHI-231 cells, 0, 2, 5 minutes. An excerpt:
The effect of IL-17E on activation of signaling pathways in B cells was examined using the B cell lymphoma cell line WEHI-231 (Lanier L. L., et al. (1981) J. Immunol. 126:626-31). Specifically, the activation status of the protein tyrosine kinase Lyn and the B cell linker protein BLNK (Tsubata, T., et al., (2001) Int Rev Immunol 20:675-8) were examined. An increased level of the phosphorylated forms of these proteins is indicative of activation.
A total of 1.5×10^6 cells per sample were stimulated in vitro with 0.21 μg of either human IL-17E or murine IL17E at 37° C. Cells were lysed at time points t=0, 2, and 5 minutes in lysis buffer for 30 minutes on ice, followed by centrifugation for 10 minutes. Samples containing approximately 25 μg of protein were separated by SDS-PAGE, followed by transfer to membranes for Western blotting.
For detection of Lyn, Western blots were incubated with rabbit anti-Lyn antibodies, followed by horseradish peroxidase (HRP)-conjugated anti-rabbit antibodies. All blots were exposed to autoradiography film and developed to detect proteins of interest by chemiluminescence.
To assess equivalence in protein loading among lanes in both experiments, blots were stripped of antibodies and incubated with mouse anti-GAPDH antibodies and HRP-conjugated anti-mouse antibodies, followed by chemiluminescence-based detection.

B1: murine IL-17E: Murine IL-17E from R&D Systems; predominant form starting at Val 17 of GenBank NP 542767 (protein)
chain: VSLRIQEGCSHLPSCCPSKEQEPPEEWLKWSSASVSPPEPLSHTHHAESCRASKDGPLNSRAISPWSYELDRDLNRVPQDLYHARCLCPHCVSLQTGSHMDPLGNSVPLYHNQTVFYRRPCHGEEGTHRRYCLERRLYRVSLACVCVRPRVMA
Take B1: in assay [1] (0.04 mg/kg murine IL-17E every other day), the “antitumour efficacy, comparison of i.p. and i.v. routes of administration” value is reported as “approximately equivalent antitumour efficacy”. Besides, the “tumour growth (tumour weight) vs PBS” value in assay [1] (0.04 mg/kg murine IL-17E intraperitoneally every other day) and in assay [1] (0.04 mg/kg murine IL-17E intravenously every other day) was “inhibit tumour growth” throughout. Also, in assay [2], the “percentage of splenic eosinophils (CCR3+, granulocyte-gated) as compared to PBS” value is recorded as “significantly increased”. The “levels of phosphorylated Lyn protein” value in assay [3] is on record as “increased”.

B2: human IL-17E: Recombinant human IL-17E from PeproTech; two 145 amino acid chains, predominant form starting at Tyr 33 of GenBank AAG40848 (protein, listed as Homo sapiens)
chain: YSHWPSCCPSKGQDTSEELLRWSTVPVPPLEPARPNRHPESCRASEDGPLNSRAISPWRYELDRDLNRLPQDLYHARCLCPHCVSLQTGSHMDPRGNSELLYHNQTVFYRRPCHGEKGTHKGYCLERRLYRVSLACVCVRPRVMG
On to B2, for which, in assay [1] (0.04 mg/kg recombinant human IL-17E i.p. every other day), the “tumour growth (tumour volume) as compared to PBS” value is “significantly inhibit tumour growth”. For the same molecule, the “antitumour effect with increasing doses” value in assay [1] (0.0018, 0.016, 0.144 mg/kg s.c. every other day) is on record as “dose-response effect”. Further, the “percentage of splenic eosinophils (CCR3+, granulocyte-gated) as compared to PBS” value in assay [2] was “significantly increased”. For the same molecule, the “levels of phosphorylated Lyn protein” value in assay [3] was “increased”.
